Data taken from publication PMC9628860, “Electron Transfer to Hydroxylase through Component Interactions in Soluble Methane Monooxygenase” (Journal of Microbiology and Biotechnology, 2022).
Where a name gives a salt, the structure may show the parent alone.

What was measured:
MMOR [1] = molecular target: T1, MMOR (Methylosinus sporium, UniProt Q27RN2, Y93A); experiment: UV-visible spectrum of purified protein, cofactor content; conditions: FAD as purified, calibrated for [2Fe-2S] absorption; FAD/NADH-binding domain; stoichiometry, not an affinity; extra FAD said to be non-specific
T1 construct: gene mmoC; full-length reductase (39 kDa), recombinant in E. coli BL21(DE3) from pET30a(+); ferredoxin domain = residues 1-98
T1 sequence (Q27RN2 entry or part of it Y93A): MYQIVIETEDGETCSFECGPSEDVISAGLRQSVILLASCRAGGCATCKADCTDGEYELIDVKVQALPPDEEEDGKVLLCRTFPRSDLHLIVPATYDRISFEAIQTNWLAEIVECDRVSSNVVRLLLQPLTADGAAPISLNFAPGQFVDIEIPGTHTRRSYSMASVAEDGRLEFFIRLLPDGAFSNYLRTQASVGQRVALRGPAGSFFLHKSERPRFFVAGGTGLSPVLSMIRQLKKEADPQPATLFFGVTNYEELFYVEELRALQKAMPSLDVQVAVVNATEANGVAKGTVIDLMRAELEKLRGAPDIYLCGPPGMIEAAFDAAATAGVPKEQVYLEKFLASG

MMOR [2] = molecular target: T2, MMOR (Methylosinus sporium, UniProt Q27RN2, Y95A); experiment: as above; conditions: FAD as purified, calibrated for [2Fe-2S] absorption; FAD/NADH-binding domain
T2 construct: gene mmoC; full-length reductase (39 kDa), recombinant in E. coli BL21(DE3) from pET30a(+); ferredoxin domain = residues 1-98
T2 sequence (Q27RN2 entry or part of it Y95A): as the sequence (Q27RN2 entry or part of it Y93A) above, with A93Y, Y95A counted along it

[3] = molecular target: T3, sMMO (MMOH + MMOB + MMOR) (Methylosinus sporium, UniProt Q27RN2, Y93A); experiment: NADH consumption at […] nm; format: biochemical; conditions: turnover; propylene and O2 as co-substrates; 1 uM MMOH, 2 equiv. MMOB, 0.5 or 1.0 equiv. MMOR; 25 mM phosphate, 50 mM NaCl, pH 7.0
T3 construct: gene mmoC; recombinant MMOB and MMOR (39 kDa) from E. coli; with Methane monooxygenase component A alpha chain; Methane monooxygenase component A beta chain; Methane monooxygenase component A gamma chain; Methane monooxygenase regulatory protein B
T3 sequence (Q27RN2 entry or part of it Y93A): as the sequence (Q27RN2 entry or part of it Y93A) above
T3 sequence (Q27RN4 entry or part of it, stated change not applied, further chain): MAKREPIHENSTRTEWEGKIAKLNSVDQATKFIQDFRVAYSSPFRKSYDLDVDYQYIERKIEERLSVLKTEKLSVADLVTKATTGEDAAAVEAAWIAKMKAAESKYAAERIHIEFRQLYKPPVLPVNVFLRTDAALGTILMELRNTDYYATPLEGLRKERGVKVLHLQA
T3 sequence (Q27RN6 entry or part of it, stated change not applied, further chain): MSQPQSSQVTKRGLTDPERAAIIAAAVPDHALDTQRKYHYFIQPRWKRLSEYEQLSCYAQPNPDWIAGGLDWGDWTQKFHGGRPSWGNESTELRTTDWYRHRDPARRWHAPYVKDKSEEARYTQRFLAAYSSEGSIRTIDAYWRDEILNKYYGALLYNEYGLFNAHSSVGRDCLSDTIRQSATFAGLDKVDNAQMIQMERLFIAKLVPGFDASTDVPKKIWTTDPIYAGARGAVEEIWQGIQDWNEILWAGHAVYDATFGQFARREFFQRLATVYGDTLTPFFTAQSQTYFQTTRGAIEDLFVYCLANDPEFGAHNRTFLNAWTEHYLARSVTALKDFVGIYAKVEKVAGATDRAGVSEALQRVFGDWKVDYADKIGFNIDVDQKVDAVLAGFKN

[4] = molecular target: Hydroxylase (MMOH) of soluble methane monooxygenase (sMMO) from Methylosinus sporium 5 (Methylosinus sporium 5); experiment: other fluorescence titration; tryptophan quenching (Ex 282 nm, Em 336 nm); MMOH 0.32 uM in the cuvette, MMORs added from 0 to 110 equivalents; 25 mM MOPS, 50 mM NaCl, 1 mM DTT, pH 6.5; fitted with a 1:2 binding model

FAD/protein (MMOR [1])	Kd1 (first site, 1:2 binding model) [4]	Kd2 (second site, 1:2 binding model) [4]	Compound	FADs per purified reductase (MMOR [2])	NADH consumption at 340 nm [3]
2.0 FAD/protein			Cc1cc2nc3c(=O)[nH]c(=O)nc-3n(C[C@H](O)[C@H](O)[C@H](O)COP(=O)(O)OP(=O)(O)OC[C@H]3O[C@@H](n4cnc5c(N)ncnc54)[C@H](O)[C@@H]3O)c2cc1C [flavin adenine dinucleotide]	two irons and two FADs per purified reductase	
			NC(=O)C1=CN([C@@H]2O[C@H](COP(=O)(O)OP(=O)(O)OC[C@H]3O[C@@H](n4cnc5c(N)ncnc54)[C@H](O)[C@@H]3O)[C@@H](O)[C@H]2O)C=CC1 [β-nicotinamide adenine dinucleotide, reduced disodium salt hydrate]		The activity of MMOR-Y93A was dramatically reduced
	0.15 µM	17 µM	MMOR-Y93A (enzyme)		
	0.21 µM	7.97 µM	MMOR-Y95A (enzyme)		
